Reference: US20120137392A1

Target: eJMC^Y859A (eJMC mutated in the first amino acid of the YXXΦ sequence) fused to GFP (Arabidopsis thaliana), Q9FL28
Assay: cell-based or functional assay

Sequence of eJMC^Y859A (eJMC mutated in the first amino acid of the YXXΦ sequence) fused to GFP (Arabidopsis thaliana), Q9FL28 (Q9FL28 other isoform, or with tags, fused parts or gaps Y859A Y859A): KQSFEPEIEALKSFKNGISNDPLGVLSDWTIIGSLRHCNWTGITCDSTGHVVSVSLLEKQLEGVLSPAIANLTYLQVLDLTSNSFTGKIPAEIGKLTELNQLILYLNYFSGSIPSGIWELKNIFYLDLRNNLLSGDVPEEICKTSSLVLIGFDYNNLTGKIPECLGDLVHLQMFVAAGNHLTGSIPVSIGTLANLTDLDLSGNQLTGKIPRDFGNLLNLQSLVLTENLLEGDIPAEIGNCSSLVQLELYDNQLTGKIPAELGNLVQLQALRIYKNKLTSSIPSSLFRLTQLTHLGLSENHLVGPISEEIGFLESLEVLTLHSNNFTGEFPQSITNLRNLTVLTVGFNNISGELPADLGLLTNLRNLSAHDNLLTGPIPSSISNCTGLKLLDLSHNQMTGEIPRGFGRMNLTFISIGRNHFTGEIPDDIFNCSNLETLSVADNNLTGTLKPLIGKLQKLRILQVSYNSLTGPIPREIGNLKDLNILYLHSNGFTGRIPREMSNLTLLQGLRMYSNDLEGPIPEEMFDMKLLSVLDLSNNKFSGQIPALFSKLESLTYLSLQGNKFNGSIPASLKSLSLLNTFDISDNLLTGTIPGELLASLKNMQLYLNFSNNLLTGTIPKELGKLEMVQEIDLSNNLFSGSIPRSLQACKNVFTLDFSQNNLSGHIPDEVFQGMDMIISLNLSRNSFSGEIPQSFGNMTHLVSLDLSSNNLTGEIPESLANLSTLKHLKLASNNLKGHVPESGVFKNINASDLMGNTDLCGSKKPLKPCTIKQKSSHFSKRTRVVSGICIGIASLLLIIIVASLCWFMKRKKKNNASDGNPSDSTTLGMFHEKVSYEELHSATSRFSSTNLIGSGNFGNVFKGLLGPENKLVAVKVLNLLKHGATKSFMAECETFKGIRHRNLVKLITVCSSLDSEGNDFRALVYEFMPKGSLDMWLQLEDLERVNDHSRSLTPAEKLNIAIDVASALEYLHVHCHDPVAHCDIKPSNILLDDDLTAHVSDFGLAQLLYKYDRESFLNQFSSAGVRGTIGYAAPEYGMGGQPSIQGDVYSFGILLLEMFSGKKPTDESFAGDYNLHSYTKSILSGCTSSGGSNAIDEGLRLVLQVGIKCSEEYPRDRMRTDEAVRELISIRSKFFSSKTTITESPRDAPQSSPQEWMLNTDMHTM

QRLSTGSRINSAKDDAAGLQIA [flg22 (peptide derived from bacterial flagellin)]
ethylene accumulation, agroinfiltrated tobacco leaf explants, against the negative control: 4.8 times
